Test results taken from publication PMC9181416.

Target: PIN1 HL-1, fragment of the PIN1 hydrophilic loop, amino acids 289-451 (Arabidopsis thaliana) (UniProt Q9C6B8)
Experiment: AUC; sedimentation velocity, 42,000 rpm, 20 °C, 50 mM NaP pH 7.4, 150 mM NaCl, absorbance at 280 nm, c(s) distribution (SEDFIT); PIN1 HL-1 at 1.26 mg/mL; monomer to dimer

## PIN1 HL-1, fragment of the PIN1 hydrophilic loop, amino acids 289-451 (from UniProt Q9C6B8 289-451) (domain or fragment)
  stoichiometry N: 2
